Like-named read-outs stand apart in the source and are kept apart here.
Assays:
Experiment in all cases: single-molecule force spectroscopy
[1] = molecular target: C5aR complexed with the PMX53 antagonist (free PMX53 injected) (human) (UniProt P21730)
[2] = molecular target: C5aR complexed with the PMX53 antagonist (free PMX53 injected) (human) (UniProt P21730); remark: listed apart in the source
[3] = molecular target: C5a anaphylatoxin chemotactic receptor 1 (C5aR), wild type (human) (UniProt P21730)
[4] = molecular target: C5aR R175V/Y258V double mutant (human) (UniProt P21730)
[5] = molecular target: C5aR D282A mutant (human) (UniProt P21730)
Chain of C5aR D282A mutant (human) (P21730 whole entry D282A): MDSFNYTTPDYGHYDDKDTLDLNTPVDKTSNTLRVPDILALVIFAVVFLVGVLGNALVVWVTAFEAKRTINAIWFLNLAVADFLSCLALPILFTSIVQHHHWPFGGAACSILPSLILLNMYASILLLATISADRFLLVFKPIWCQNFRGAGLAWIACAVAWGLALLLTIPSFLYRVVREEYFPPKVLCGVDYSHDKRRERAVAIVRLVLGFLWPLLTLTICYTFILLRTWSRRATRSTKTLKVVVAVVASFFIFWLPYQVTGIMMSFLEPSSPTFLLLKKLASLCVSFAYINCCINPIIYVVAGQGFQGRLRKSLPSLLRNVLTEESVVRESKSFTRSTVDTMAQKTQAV

Chain of C5aR complexed with the PMX53 antagonist (free PMX53 injected) (human) (P21730 whole entry, looked up, one chain of several): as the sequence (P21730 whole entry D282A) above, with A282D counted along it
Chain of complement C5a anaphylatoxin (P01031 678-751): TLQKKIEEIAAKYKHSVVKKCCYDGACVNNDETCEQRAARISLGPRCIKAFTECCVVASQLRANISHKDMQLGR
Chain of C5a anaphylatoxin chemotactic receptor 1 (C5aR), wild type (human) (P21730 whole entry): as the sequence (P21730 whole entry D282A) above, with A282D counted along it
Chain of C5aR R175V/Y258V double mutant (human) (P21730 whole entry R175V/Y258V): as the sequence (P21730 whole entry D282A) above, with R175V, Y258V, A282D counted along it

Substance	residence time τ0.5 [1]	Kd [1]	equilibrium force Feq [1]	equilibrium force Feq [2]	Kd [3]	equilibrium force Feq [3]	reduction in residence time against C5aR WT [4]	residence time [5]
C5a des-Arg (ligand)	0.5 ms	–	–	–	–	–	–	–
complement C5a anaphylatoxin (from UniProt P01031 678-751) (ligand)	0.2 ms	800 mM	23 pN	23 pN	–	–	–	–
Cys-Gly3-Phe-[{Orn}-Pro-{D-Cha}-Trp-Arg] (PMX53-Gly3-Cys), PMX53 antagonist as tethered to the AFM tip (peptide)	–	–	–	–	4.7 nM	50 pN	40%	0.1 ms
